Measured values reported in publication PMC10783490, “Biochemical and cellular insights into the Baz2B protein, a non-catalytic subunit of the chromatin remodeling complex” (Nucleic Acids Research, 2023).

T1: His6-BRD^Baz2B (bromodomain of human Baz2B, wild-type) (human, UniProt Q9UIF8 2054-2168, fluorescent label (Monolith NT Protein Labelling Kit RED-NHS))
T1 construct: bromodomain (BRD) of human Baz2B, from plasmid pNIC28-Bsa4-BAZ2B-BRD; also called BAZ2B-BRD; source: E. coli BL21(DE3)-R3-pRARE2, purified (Ni-NTA, Sephadex 75)
T1 sequence: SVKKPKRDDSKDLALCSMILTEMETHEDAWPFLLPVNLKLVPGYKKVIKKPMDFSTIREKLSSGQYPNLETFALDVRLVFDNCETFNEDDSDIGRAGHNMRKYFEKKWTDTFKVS

T2: BRD^Baz2B L2073V (human, UniProt Q9UIF8 2054-2168, L2073V, fluorescent label (Monolith NT Protein Labelling Kit RED-NHS))
T2 construct: bromodomain (BRD) of human Baz2B with a cancer-associated point mutation, made on pNIC28-Bsa4-BAZ2B-BRD; Same limits as m1; mutation found in pancreatic cancer (COSMIC/ICGC); source: E. coli BL21(DE3)-R3-pRARE2, purified (Ni-NTA, Sephadex 75)
T2 sequence: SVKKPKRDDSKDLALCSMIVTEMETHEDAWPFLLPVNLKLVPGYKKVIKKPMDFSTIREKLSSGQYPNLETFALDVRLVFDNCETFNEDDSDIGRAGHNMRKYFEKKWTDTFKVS

T3: BRD^Baz2B K2098N (human, UniProt Q9UIF8 2054-2168, K2098N, fluorescent label (Monolith NT Protein Labelling Kit RED-NHS))
T3 construct: bromodomain (BRD) of human Baz2B with a cancer-associated point mutation, made on pNIC28-Bsa4-BAZ2B-BRD; Same limits as m1; mutation found in multiple myeloma; source: E. coli BL21(DE3)-R3-pRARE2, purified (Ni-NTA, Sephadex 75)
T3 sequence: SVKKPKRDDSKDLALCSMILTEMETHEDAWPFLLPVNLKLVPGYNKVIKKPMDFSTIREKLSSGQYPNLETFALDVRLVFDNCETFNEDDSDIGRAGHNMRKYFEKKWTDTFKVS

T4: BRD^Baz2B L2127V (human, UniProt Q9UIF8 2054-2168, L2127V, fluorescent label (Monolith NT Protein Labelling Kit RED-NHS))
T4 construct: bromodomain (BRD) of human Baz2B with a cancer-associated point mutation, made on pNIC28-Bsa4-BAZ2B-BRD; Same limits as m1; mutation found in breast cancer; source: E. coli BL21(DE3)-R3-pRARE2, purified (Ni-NTA, Sephadex 75)
T4 sequence: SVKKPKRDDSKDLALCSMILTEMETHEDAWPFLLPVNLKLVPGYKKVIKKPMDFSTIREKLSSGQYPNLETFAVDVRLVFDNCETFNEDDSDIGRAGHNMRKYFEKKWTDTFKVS

T5: BRD^Baz2B T2138I (human, UniProt Q9UIF8 2054-2168, T2138I, fluorescent label (Monolith NT Protein Labelling Kit RED-NHS))
T5 construct: bromodomain (BRD) of human Baz2B with a cancer-associated point mutation, made on pNIC28-Bsa4-BAZ2B-BRD; Same limits as m1; mutation found in multiple myeloma; source: E. coli BL21(DE3)-R3-pRARE2, purified (Ni-NTA, Sephadex 75)
T5 sequence: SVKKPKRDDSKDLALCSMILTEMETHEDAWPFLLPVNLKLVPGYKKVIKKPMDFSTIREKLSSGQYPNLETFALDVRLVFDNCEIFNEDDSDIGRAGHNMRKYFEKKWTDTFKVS

T6: BRD^Baz2B F2139C (human, UniProt Q9UIF8 2054-2168, F2139C, fluorescent label (Monolith NT Protein Labelling Kit RED-NHS))
T6 construct: bromodomain (BRD) of human Baz2B with a cancer-associated point mutation, made on pNIC28-Bsa4-BAZ2B-BRD; Same limits as m1; mutation found in endometrial cancer; source: E. coli BL21(DE3)-R3-pRARE2, purified (Ni-NTA, Sephadex 75)
T6 sequence: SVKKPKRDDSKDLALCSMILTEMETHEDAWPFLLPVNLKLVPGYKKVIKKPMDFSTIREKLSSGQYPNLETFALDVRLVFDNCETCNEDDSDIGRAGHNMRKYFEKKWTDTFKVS

T7: BRD^Baz2B D2143N (human, UniProt Q9UIF8 2054-2168, D2143N, fluorescent label (Monolith NT Protein Labelling Kit RED-NHS))
T7 construct: bromodomain (BRD) of human Baz2B with a cancer-associated point mutation, made on pNIC28-Bsa4-BAZ2B-BRD; Same limits as m1; mutation found in breast invasive carcinoma; source: E. coli BL21(DE3)-R3-pRARE2, purified (Ni-NTA, Sephadex 75)
T7 sequence: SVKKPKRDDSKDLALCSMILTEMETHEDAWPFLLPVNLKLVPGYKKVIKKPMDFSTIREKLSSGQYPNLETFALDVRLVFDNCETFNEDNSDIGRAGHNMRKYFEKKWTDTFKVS

T8: TAM-AT1-AT2 Baz2B (Homo sapiens, UniProt Q9UIF8 721-884)
T8 sequence: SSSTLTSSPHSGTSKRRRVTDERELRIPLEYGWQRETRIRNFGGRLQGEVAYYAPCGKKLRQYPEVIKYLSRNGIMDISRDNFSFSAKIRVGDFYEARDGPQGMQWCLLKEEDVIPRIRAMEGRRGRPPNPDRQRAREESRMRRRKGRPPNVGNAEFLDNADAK


Assays:
[1] = target: T1, His6-BRD^Baz2B (bromodomain of human …); experiment: MST; 100 nM fluorescently labelled (RED-NHS) BRD^Baz2B, peptide (H3 or H3K14ac) titrated; MST buffer 150 mM Tris-HCl, 50 mM NaCl, 10 mM MgCl2, pH 7.6, 0.0025% Pluronic, 200 ng/ul BSA; 25 C, 20% MST power; at least triplicate; settings: both partners purified
BRD^Baz2B L2073V = target: T2, BRD^Baz2B L2073V; experiment: as above; settings: both partners purified
BRD^Baz2B K2098N = target: T3, BRD^Baz2B K2098N; experiment: as above; settings: both partners purified
BRD^Baz2B L2127V = target: T4, BRD^Baz2B L2127V; experiment: as above; settings: both partners purified
BRD^Baz2B T2138I = target: T5, BRD^Baz2B T2138I; experiment: as above; settings: both partners purified
BRD^Baz2B F2139C = target: T6, BRD^Baz2B F2139C; experiment: as above; settings: both partners purified
BRD^Baz2B D2143N = target: T7, BRD^Baz2B D2143N; experiment: as above; settings: both partners purified
TAM-AT1-AT2 Baz2B [2] = target: T8, TAM-AT1-AT2 Baz2B; experiment: MST; EMSA: 20 mM HEPES pH 7.5, 30 mM KCl, 1 mM EDTA, 10 mM (NH4)2SO4, 1 mM DTT, 4 C, 10 nM probe; MST: same plus 0.1 ug/ml BSA, 5 nM probe, 25 C; GST-AT-hook and bromodomain EMSA as in cited refs; settings: protein: recombinant; tags: His6; label: 5' Cy5
TAM-AT1-AT2 Baz2B [3] = target: T8, TAM-AT1-AT2 Baz2B; experiment: EMSA; EMSA: 20 mM HEPES pH 7.5, 30 mM KCl, 1 mM EDTA, 10 mM (NH4)2SO4, 1 mM DTT, 4 C, 10 nM probe; MST: same plus 0.1 ug/ml BSA, 5 nM probe, 25 C; GST-AT-hook and bromodomain EMSA as in cited refs; settings: protein: recombinant; tags: His6; label: 5' Cy5

| Kd [1] | Kd (BRD^Baz2B L2073V) | Kd (BRD^Baz2B K2098N) | Kd (BRD^Baz2B L2127V) | Kd (BRD^Baz2B T2138I) | Kd (BRD^Baz2B F2139C) | Kd (BRD^Baz2B D2143N) | Binder | Kd (TAM-AT1-AT2 Baz2B [2]) | Kd (TAM-AT1-AT2 Baz2B [3]) |
| --- | --- | --- | --- | --- | --- | --- | --- | --- | --- |
| 16 µM | 78 µM | 24 µM | 30 µM | 94 µM | 20 µM | 133 µM | Ac-TARKSTGGK(Ac)APRKQL-NH2 (N-terminal tail of histone H3, residues 6-20; also called acetylated H3 tail peptide; acetylated at K14 (K14ac) N-terminal H3 histone tail peptide; source: synthetic peptide, bought: alta Bioscience) [H3K14ac peptide (Ac-TARKSTGGK(ac)APRKQL-NH2)] | – | – |
| – | – | – | – | – | – | – | GGGGGGUCAUUUUUGGGGAAACCCUGUCUCUUUCC (structured_RNA) [pRNAmini] | 0.288 µM | 0.137 µM |
